Assay results as given in patent US20100124555A1, “Compositions and Methods for Treating Pancreatic Tumors” (UNIVERSITE DE LA MEDITERRANEE, priority 2007, published 2010).

Tests used:
[1] = Tissue cross-reaction study (staining of healthy tissues); conditions: non-specific crossreactivity
Method: The staining specificity of the IgM 16D10 and chimeric IgG rec16D10 antibodies was assessed by examining their respective staining of various healthy tissues. […] Staining with the chimeric antibody reel 6D10, in contrast, was negative on each of these healthy tissues.

[2] = system: E-cadherin in PANC-1 cells; assay: Immunofluorescence of E-cadherin, PANC-1; format: cell-based, human; conditions: PANC-1 treated or not with mAb16D10
[3] = system: cell surface antigens of fixed SOJ-6 cells; assay: FACS cell surface binding stability on fixed SOJ-6 cells; design: species or system human; conditions: preliminary FACS experiments
From the text: Taking in account that most of the antibodies that have been studied so far at Innate Pharma, have kon rate association constants ranging from 5×10^5 to 5×10^6 M^−1s^−1, one can estimate that the recombinant 16D10 antibody bivalent affinity is in the nanomolar order (e.g., 10 to 1 nanoM) which is compatible with the industrial development of a therapeutic antibody.

SOJ-6 cells [4] = assay: Annexin V / PI apoptosis assay; format: cell-based, human; conditions: antibodies 20 μg/ml, tunicamycin 25 or 50 μg/ml
Method: SOJ-6 cells (20.10^4 cells per well) were seeded onto 24 wells plates 72H before to start the experiment. Cells were incubated either with 20 μg/ml 16D10 IgM, or 20 μg/ml of a further recombinant 16D10 IgG1 antibody which contained the 16D10 variable regions linked fused to a human IgG1 constant region and human kappa light region for the heavy and light chains respectively, 25 μg/ml Tunicamycin or 50 μg/ml Tunicamycin. The AnnexinV/PI stainings were performed after 24H of culture using the AnnexinV-FITC Apoptosis Detection Kit I (BD Pharmingen) according to the manufacturer instructions. Stainings were acquired on a FACScan (Becton Dickinson, San Jose, Calif.) and results were analysed using FlowJo Software.

SOJ-6 cells [5] = assay: Cell-cycle distribution by propidium iodide flow cytometry, SOJ-6; format: cell-based, human; conditions: SOJ-6 after mAb16D10 treatment
Method: Cells were washed twice using cold PBS 1×/BSA 0.2%/Sodium Azide 0.05% buffer. Staining was performed using the different antibodies during 1H at 4° C. into round 96-well plates using 5×10^4 cells per well. Cells were then washed twice before being incubated with secondary reagents. After two washes, cells were re-suspended before acquisition into PBS1X/Formaldehyde 1%. Stainings were acquired on a FACScan (Becton Dickinson, San Jose, Calif.) and results were analysed using FlowJo Software. SOJ-6 cells pre-treated or not with 5 μg/ml aphidicolin (a reversible inhibitor of eukaryotic nuclear DNA replication, which blocks the cell cycle at early S-phase) for 6 h, were then incubated with mAb16D10 or irrelevant IgM used as a negative control. Cells were released from culture plates with a non-enzymatic cell dissociation solution, washed with PBS^+/+, fixed with 70% ethanol at −20° C. and washed with PBS^+/+. The cells were resuspended in a solution of 400 μg/ml propidium iodide in isoflow buffer and were incubated for 30 min at room temperature as already described [Mi-Lian et al., 2004]. Cell-cycle distribution was detected by flow cytometry and analyzed by Mod Fit software (Verity Software House, Inc., Topsham, Me.). The red fluorescence of single events was recorded using excitation and emission at 488 nm and at 610 nm respectively, to measure the DNA index.
We next wished to know whether mAb16D10-induced apoptosis was due, in part, to the arrest of the cell cycle. Cell cycle distribution of the SOJ-6 cells after treatment was assessed by observing DNA profiles following SOJ-6 cells pre-treated not or with aphidicolin, treated not or with mAb16D10. Each experiment was carried out in triplate. We used a specific DNA marker, Propidium Iodide, to determine the different phases of the cell cycle by flow cytometry. […] Indeed, the shift of cells from the G2/M to the G1/S phase and from the G1/S to the apoptosis was also observed following aphidicolin treatment. […]

[6] = system: 16D10 antigen on PANC-1 cells; assay: Flow cytometry detection of antigen at the cell surface, PANC-1; format: binding, human
Method: (§1) Detection of antigens at the surface of SOJ-6 and PANC-1 cells was carried out by indirect fluorescence under the following conditions: cells were released from culture plates by treatment with a non enzymatic dissociation liquid (Calbiochem) for 15 minutes at 37° C. All subsequent steps were carried out at 4° C. The cells were washed with phosphate buffered saline (PBS), fixed with 2% paraformaldehyde in PBS for 15 minutes, and washed with 1% BSA in PBS for 15 minutes. Antigens were exposed for 2 hours to specific antibodies, washed with PBS, and finally incubated for 45 minutes with appropriate FITC-labeled secondary antibodies. Cells were then washed, resuspended in isoflow buffer, and analyzed on Coulter FACSCalibur device.
(§2) Flow cytometry experiments were carried out to investigate whether the antigen recognized by 16D10 was found on the surface of cells. Results are shown in FIGS. 14 and 15, representing SOJ-6 and PANC-1 cells, respectively. […] In each case, 16D10 binding was compared to a negative control and a control mouse IgM (Sigma).

[7] = system: 16D10 antigen on SOJ-6 cells; assay: Flow cytometry detection of antigen at the cell surface, SOJ-6; format: binding, human
Method: as §1, §2

B1: 16D10: IgM monoclonal antibody recognizing FAPP/BSDL; producing cells deposited with the CNCM under the number I-3188 (antibody, listed as Mus musculus, V domains shown)
VH: QVQLQQSDAELVKPGASVKISCKASGYTFTDHAIHWVKQKPEQGLEWIGYISPGNDVIKFNEKFKGKATLTADKSSSTAYMQLNSLTSEDSAVYFCKRSEGGVFDYWGQGTTLTVS
VL: NIMMTQSPSSLAVSAGEKVTMSCKSSQSVLYSSNQKNFLAWYQQKPGQSPKLLIYWASTRESGVPDRFTGSGSGTDFTLTISSVQAEDLAVYYCHQYLSSYTFGGGTKLEIK
[1]
  staining of healthy tissues (tonsils, salivary gland, peripheral nerve, eyes, bone marrow, ovary, oviduct, parathyroid, prostate, spleen, kidney, adrenals, testes, thymus, ureters, uterus, bladder): positive staining
[2]
  E-cadherin at the plasma membrane: did not express E-cadherin at their plasma membrane
[3]
  stability of staining on fixed SOJ-6 cells: seemed stable
SOJ-6 cells [4]
  apoptosis by Annexin V and Annexin V/PI staining: induced significant levels of apoptosis
SOJ-6 cells [5]
  apoptotic cells: 6%
  cells in G1/S: 96%
  cells in G2/M phase: 4%
[6]
  binding to antigen on PANC-1 cells: did not bind antigen present on PANC-1 cells
[7]; antibody incubated with trypsin
  effect of trypsin incubation on binding to SOJ-6 cells: substantially decrease the binding
[7]; flow cytometry / FACS
  binding to antigen on SOJ-6 cells: found to bind antigen present on SOJ-6 cells
